According to paper PMC9398005:

How the values were obtained:
[1] = target: Drosophila Su(H) K132M (98-523) (Drosophila) (UniProt P28159); assay: ITC; RAM peptide, Hairless or SHARP in the syringe, Su(H) or Rbpj in the cell; 50 mM sodium phosphate, 150 mM sodium chloride; 20 injections of 14 uL; triplicate; one site binding model; 20°C by the methods, 25°C by the legend of Fig 6
[2] = target: Drosophila Su(H) E137V (98-523) (Drosophila) (UniProt P28159); assay: as above
[3] = target: Drosophila Su(H) WT (98-523) (Drosophila) (UniProt P28159); assay: as above
[4] = target: Drosophila Su(H) (98-523) WT (Drosophila) (UniProt P28159); assay: ITC; cofactor (RAM peptide, Hairless or SHARP) in the syringe, Su(H) or Rbpj in the cell; 50 mM sodium phosphate, 150 mM sodium chloride; 20 injections, triplicate, one site model; 25°C by the legend, 20°C by the methods

VLSTQRKRAHGVTWFPEGFRAPAAVMSR [Drosophila Notch RAM peptide (residues 1763-1790)]
Ka [1]: 1.2e+07 M⁻¹
Ka [2]: 6.5e+06 M⁻¹
Ka [3]: 5.4e+06 M⁻¹
Kd [3]: 187 nM
Kd [4]: 187 nM
